Results taken from patent US20190211057A1 (NATIONAL YANG MING UNIVERSITY, published 2019).
Ends that are not written are not given here.

Columns and labels:
[1] = molecular target: T1, integrin αvβ3 receptor on cells (HUVEC, U87MG, MCF-7, ES-2-luc) (human), P06756; assay: competitive cell uptake on MCF-7 cells (low αvβ3), cRGDfk at 1000-fold molar excess; labelled ^111In-DTPA-RGD4C-yCD; settings: remark: other sources report otherwise
T1 chain 1: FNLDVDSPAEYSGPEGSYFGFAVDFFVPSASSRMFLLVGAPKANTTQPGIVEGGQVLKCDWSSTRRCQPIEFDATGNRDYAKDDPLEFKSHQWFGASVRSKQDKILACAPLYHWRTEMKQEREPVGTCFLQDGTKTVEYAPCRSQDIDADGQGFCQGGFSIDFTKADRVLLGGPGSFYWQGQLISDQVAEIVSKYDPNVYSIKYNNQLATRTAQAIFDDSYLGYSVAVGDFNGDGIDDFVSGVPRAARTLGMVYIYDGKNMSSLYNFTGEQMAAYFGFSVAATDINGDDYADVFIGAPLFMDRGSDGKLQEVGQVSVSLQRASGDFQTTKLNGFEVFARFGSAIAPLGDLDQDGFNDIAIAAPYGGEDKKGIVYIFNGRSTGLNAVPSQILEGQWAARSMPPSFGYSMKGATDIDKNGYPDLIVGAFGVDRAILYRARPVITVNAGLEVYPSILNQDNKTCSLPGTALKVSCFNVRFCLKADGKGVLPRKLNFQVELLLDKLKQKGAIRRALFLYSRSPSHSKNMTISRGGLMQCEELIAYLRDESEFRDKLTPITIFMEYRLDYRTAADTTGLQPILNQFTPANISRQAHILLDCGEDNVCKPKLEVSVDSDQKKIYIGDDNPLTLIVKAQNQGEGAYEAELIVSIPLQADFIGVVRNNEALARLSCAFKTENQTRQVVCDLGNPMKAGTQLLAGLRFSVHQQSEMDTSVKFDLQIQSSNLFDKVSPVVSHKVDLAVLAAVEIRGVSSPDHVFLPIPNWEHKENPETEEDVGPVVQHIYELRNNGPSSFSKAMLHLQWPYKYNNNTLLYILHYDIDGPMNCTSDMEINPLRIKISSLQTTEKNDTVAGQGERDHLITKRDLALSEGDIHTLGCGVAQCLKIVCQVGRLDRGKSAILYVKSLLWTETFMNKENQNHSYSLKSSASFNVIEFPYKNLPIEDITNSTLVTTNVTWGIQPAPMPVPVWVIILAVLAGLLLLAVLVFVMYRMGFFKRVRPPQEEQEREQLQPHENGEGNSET
T1 chain 2: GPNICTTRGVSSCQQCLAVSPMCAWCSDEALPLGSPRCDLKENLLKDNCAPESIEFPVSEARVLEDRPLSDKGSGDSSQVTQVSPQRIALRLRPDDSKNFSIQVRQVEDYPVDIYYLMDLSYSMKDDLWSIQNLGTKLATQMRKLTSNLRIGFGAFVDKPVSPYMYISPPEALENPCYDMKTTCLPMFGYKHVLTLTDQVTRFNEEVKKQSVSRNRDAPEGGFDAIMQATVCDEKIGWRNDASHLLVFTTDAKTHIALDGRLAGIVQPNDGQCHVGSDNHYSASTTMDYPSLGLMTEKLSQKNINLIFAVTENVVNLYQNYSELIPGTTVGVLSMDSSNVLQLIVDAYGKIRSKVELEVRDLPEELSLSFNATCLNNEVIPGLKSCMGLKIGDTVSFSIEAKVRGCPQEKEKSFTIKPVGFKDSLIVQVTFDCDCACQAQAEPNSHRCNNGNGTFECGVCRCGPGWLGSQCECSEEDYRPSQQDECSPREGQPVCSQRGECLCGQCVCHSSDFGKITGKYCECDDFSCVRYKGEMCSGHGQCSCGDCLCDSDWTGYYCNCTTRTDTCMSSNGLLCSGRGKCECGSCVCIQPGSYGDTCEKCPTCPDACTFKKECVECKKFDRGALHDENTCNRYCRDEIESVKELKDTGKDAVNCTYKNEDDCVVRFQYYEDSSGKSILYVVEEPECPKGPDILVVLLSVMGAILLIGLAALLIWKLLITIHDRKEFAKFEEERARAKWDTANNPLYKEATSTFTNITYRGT

[2] = molecular target: T1, integrin αvβ3 receptor on cells (HUVEC, …); assay: competitive cell uptake on HUVEC cells, cRGDfk at 1000-fold molar excess; labelled ^111In-DTPA-RGD4C-yCD; settings: remark: other sources report otherwise
[3] = molecular target: T1, integrin αvβ3 receptor on cells (HUVEC, …); assay: competitive cell uptake on ES-2-luc cells, cRGDfk at 1000-fold molar excess; labelled competitor ^111In-DTPA-RGD4C-yCD; settings: remark: other sources report otherwise
[4] = molecular target: T2, integrin αvβ3 receptor on cells (HUVEC, U87MG, MCF-7, ES-2-luc) (human, UniProt P06756 31-1048; P05106 27-788); assay: cell ELISA, U87MG against MCF-7
T2 construct: whole, on cells; HUVEC and U87MG express αvβ3 highly, MCF-7 has low or no expression and ES-2-luc moderate expression; also called integrin αvβ3 on cells; integrin receptor on the cell membrane

[5] = molecular target: T2, integrin αvβ3 receptor on cells (HUVEC, …); assay: cell ELISA on U87MG cells (repeats Table 2)
[6] = molecular target: T2, integrin αvβ3 receptor on cells (HUVEC, …); assay: cell ELISA on U87MG cells, anti-His-HRP
Description: (§1) After reacted with anti-His-HRP antibody and TMB substrate, ELISA reader (OD450 nm) is used to detect the amount of recombinant protein bound to the cells, and the binding curve is drawn. The nonlinear curve of the prism software is used to make a diagram and calculate the dissociation constant (Kd).
(§2) The anti-His6-Tag-HRP antibody and TMB show the color reagent to detect the amount of recombinant protein bound to the cell, then the dissociation constant Kd value of the recombinant protein and the integrin αᵥβ₃ receptor is calculated and a binding curve is drawn.

integrin αvβ3 receptor [7] = molecular target: T3, integrin αvβ3 receptor (UniProt P06756 31-992; P05106 27-718); assay: ELISA on integrin αvβ3 receptor, one site-specific binding fit
T3 construct: also called αvβ3 integrin; αvβ3 integrin receptor
Description: The curve and receptor binding ability parameters (see FIG. 19 and Table 14) are fitted by the binding ability of DTPA-modified protein and integrin αᵥβ₃ receptor through the One site-Specific binding formula in the Graph prism program.

[8] = molecular target: T2, integrin αvβ3 receptor on cells (HUVEC, …); assay: cell ELISA on HUVEC cells (repeats Table 2)
integrin αvβ3 receptor [9] = molecular target: T3, integrin αvβ3 receptor; assay: ELISA on integrin αvβ3 receptor, anti-His6-HRP detection, curve fit
Description: The dissociation constant Kd is obtained by prism software with curve fitting method.

[10] = molecular target: T2, integrin αvβ3 receptor on cells (HUVEC, …); assay: cell ELISA on MCF-7 cells (repeats Table 2)
[11] = molecular target: T2, integrin αvβ3 receptor on cells (HUVEC, …); assay: cell-based or functional assay
[12] = molecular target: T2, integrin αvβ3 receptor on cells (HUVEC, …); assay: cell ELISA, HUVEC against MCF-7
integrin αvβ3 receptor [13] = molecular target: T3, integrin αvβ3 receptor; assay: ELISA on integrin αvβ3 receptor (repeats Table 14)
[14] = molecular target: T2, integrin αvβ3 receptor on cells (HUVEC, …); assay: cell ELISA on MCF-7 cells (low αvβ3 expression), anti-His-HRP
Description: as §1, §2

[15] = molecular target: T2, integrin αvβ3 receptor on cells (HUVEC, …); assay: cell-based or functional assay; remark: listed apart in the source
[16] = molecular target: T2, integrin αvβ3 receptor on cells (HUVEC, …); assay: cell-based or functional assay; remark: listed apart in the source
[17] = molecular target: T2, integrin αvβ3 receptor on cells (HUVEC, …); assay: cell ELISA on HUVEC cells, anti-His-HRP
Description: as §1, §2

integrin αvβ3 receptor [18] = molecular target: T3, integrin αvβ3 receptor; assay: ELISA on integrin αvβ3 receptor, after simulated labelling and challenge with 10-fold molar excess of EDTA
integrin αvβ3 receptor [19] = molecular target: T3, integrin αvβ3 receptor; assay: ELISA on integrin αvβ3 receptor, after simulated labelling conditions
integrin αvβ3 receptor [20] = molecular target: T3, integrin αvβ3 receptor; assay: ELISA on integrin αvβ3 receptor; paragraph 109 says yCD can not be bound before and after modification

B1: cRGDfk (peptide)
peptide: RGDFK
modifications: not fully specified (residues 4, 5); also: prefix c and lower-case f, k not explained
[1]
  percent decrease of uptake: 45%
[2]
  percent decrease of uptake: 65%
[3]
  percent decrease of uptake: 70%

B2: RGD4C-yCD (other)
chain: MACDCRGDCFCVTGGMASKWDQKGMDIAYEEAALGYKEGGVPIGGCLINNKDGSVLGRGHNMRFQKGSATLHGEISTLENCGRLEGKVYKDTTLYTTLSPCDMCTGAIIMYGIPRCVVGENVNFKSKGEKYLQTRGHEVVVVDDERCKKIMKQFIDERPQDWFEDIGELEHHHHHH
notes: Fusion of the RGD4C peptide with yeast cytosine deaminase, expressed from pET28a(+) in E. coli and detected by its His6 tag; also called RGD4C-yCD recombinant protein
[4]
  fold cell binding ability against MCF-7: ~6.8 fold
[5]
  Kd: 53.7 nM
[6]
  Kd: 53.7 nM
Integrin αvβ3 receptor [7]
  Kd: 20.7 nM
[8]
  Kd: 47.5 nM
Integrin αvβ3 receptor [9]
  Kd: 39.5 nM
[10]
  Kd: 366 nM
[11]
  IC50 of 5-FC, MTT cytotoxicity, HUVEC cells incubated with 500 nM protein then washed: 23.6 µM
  IC50 of 5-FC, MTT cytotoxicity, MCF-7 cells (low αvβ3) incubated with 500 nM protein then washed: 5.13 mM
  IC50 of 5-FC, MTT cytotoxicity, U87MG cells incubated with 500 nM protein then washed: 37.1 µM
[12]
  fold cell binding ability against MCF-7: ~7.7 fold
Integrin αvβ3 receptor [13]
  Kd: 20.7 nM
[14]
  Kd: 366 nM
[15]
  protein reaction concentration IC50 of cytotoxic effect, MTT, HUVEC cells, 100 µM 5-FC: 209 nM
  protein reaction concentration IC50 of cytotoxic effect, MTT, U87MG cells, 100 µM 5-FC: 177 nM
[16]
  IC50 of 5-FC, MTT cytotoxicity, HUVEC cells incubated with 500 nM protein then washed (repeats Table 3): 23.6 µM
  IC50 of 5-FC, MTT cytotoxicity, MCF-7 cells (low αvβ3) incubated with 500 nM protein then washed (repeats Table 3): 5.13 mM
  IC50 of 5-FC, MTT cytotoxicity, U87MG cells incubated with 500 nM protein then washed (repeats Table 3): 37.1 µM
[17]
  Kd: 47.5 nM

B3: In-DTPA-RGD4C-yCD (other)
chain: MACDCRGDCFCVTGGMASKWDQKGMDIAYEEAALGYKEGGVPIGGCLINNKDGSVLGRGHNMRFQKGSATLHGEISTLENCGRLEGKVYKDTTLYTTLSPCDMCTGAIIMYGIPRCVVGENVNFKSKGEKYLQTRGHEVVVVDDERCKKIMKQFIDERPQDWFEDIGELEHHHHHH
modifications: DTPA on primary amines, loaded with the stable isotope of indium
notes: also called In-DTPA- RGD4C-yCD 10x EDTA
Integrin αvβ3 receptor [18]
  Kd: 34.6 nM
Integrin αvβ3 receptor [19]
  Kd: 25.4 nM

B4: DTPA-yCD (enzyme)
chain: MVVTGGMASKWDQKGMDIAYEEAALGYKEGGVPIGGCLINNKDGSVLGRGHNMRFQKGSATLHGEISTLENCGRLEGKVYKDTTLYTTLSPCDMCTGAIIMYGIPRCVVGENVNFKSKGEKYLQTRGHEVVVVDDERCKKIMKQFIDERPQDWFEDIGELEHHHHHH
modifications: DTPA on primary amines, 1.16 DTPA per protein on average
Integrin αvβ3 receptor [20]
  binding result: no binding
